The values that follow come from PMC6815173.

Common to all, as to assay: SPR
Test [1] concerns the target actin-binding domain (ABD) of α-catenin (human).
In test [2] the target is M domain of α-catenin (human).
In test [3] the target is actin-binding domain (ABD) of α-catenin (human). This is another data set of the same source.

pKd: −log10 of the molar value. Read-outs that look alike come from different tables or passages of the source.

For the substance “β-catenin•epithelial cadherin cytoplasmic domain complex (BE) (from UniProt P35222;P12830)”, the figures for the pKd in test [1], in test [2] and in test [3] were 6.33, 6.99 and 6.31, respectively. This substance showed a koff in test [2] of 0.0013 s⁻¹.
